In patent US20210018513A1:

Target: synthetic peptide …[pT]ISDSAPSR (human)
Experiment: bead array incubated with the synthetic peptide in digested BSA; bound peptide by MS, peptide left in the sample by dot blot

Chain of synthetic peptide …[pT]ISDSAPSR (human) (peptide, as listed by the source): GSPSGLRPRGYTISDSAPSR

binding capacity of a bead array of 5 identical reactive sites, each with 5% of the #3617 antibody: < 15 % of 1 pmol
Substance: Rabbit monoclonal antibody recognizing phosphorylated Thr1462 in human Tuberin (TSC2), Cell Signaling Technology catalog number 3617 (5B12)
